We go through two molecules from patent publication US20150329595A1 (NORTH CAROLINA STATE UNIVERSITY, published 2015).

Sequences and labels used below:
B2: AD:TAL11-352 prey (activation domain fused to full-length TGMV AL1) (other, Tomato golden mosaic virus, UniProt P03567 1-352, looked up, not shown: large carriers)
chain: MPSHPKRFQINAKNYFLTYPQCSLSKEESLSQLQALNTPINKKFIKICRELHEDGQPHLHVLIQFEGKYCCQNQRFFDLVSPTRSAHFHPNIQRAKSSSDVKTYIDKDGDTLVWGEFQVDGRSARGGCQTSNDAAAEALNASSKEEALQIIREKIPEKYLFQFHNLNSNLDRIFDKTPEPWLPPFHVSSFTNVPDEMRQWAENYFGKSSAARPERPISIIIEGDSRTGKTMWARSLGPHNYLSGHLDLNSRVYSNKVEYNVIDDVTPQYLKLKHWKELIGAQRDWQTNCKYGKPVQIKGGIPSIVLCNPGEGASYKVFLDKEENTPLKNWTFHNAKFVFLNSPLYQSSTQSS
notes: positive prey control; also called pNSB970

In assay [1] the target is B2. The assay is described as follows: yeast two-hybrid growth.
In assay [2] the target is T1, GUS bait (LexA DBD:beta-glucuronidase fusion) (E. coli, UniProt P0A7C2 1-202; P05804 1-603).
T1 construct: negative control bait; also called pNSB1120
Description: yeast two-hybrid growth.

B1: TAL11-130 bait (LexA DBD fused to the first 130 amino acids of TGMV AL1) (other, E. coli;Tomato golden mosaic virus, UniProt P0A7C2 1-202, looked up)
chain: MKALTARQQEVFDLIRDHISQTGMPPTRAEIAQRLGFRSPNAAEEHLKALARKGVIEIVSGASRGIRLLQEEEEGLPLVGRVAAGEPLLAQQHIEGHYQVDPSLFKPNADFLLRVSGMSMKDIGIMDGDLLAVHKTQDVRNGQVVVARIDDEVTVKRLKKQGNKVELLPENSEFKPIVVDLRQQSFTIEGLAVGVIRNGDWLMPSHPKRFQINAKNYFLTYPQCSLSKEESLSQLQALNTPINKKFIKICRELHEDGQPHLHVLIQFEGKYCCQNQRFFDLVSPTRSAHFHPNIQRAKSSSDVKTYIDKDGDTLVWGEFQVDGRSARGGCQT
notes: yeast two-hybrid bait; also called NT; Rep1-130
Consider B1, for which the binding result in assay [1] was “no binding”.

In the case of B2, the binding result in assay [2] is on record as “no binding”.
